Earlier results on one substance are cited in PMC10373500.

The series has as its target Asp76 (UniProt position 102, GSPGADRVVFN).

The pKa is the pH at which an ionisable group is half protonated. As for “Ribonuclease T1 (RNase T1) (not stated in the article (Aspergillus oryzae from outside knowledge))”, the pKa is on record as 0.5.
